Consider one substance from patent US20090264360A1.

In this test the target is lamprey GnRH receptor (sea lamprey (Petromyzon marinus)). As to the kind of experiment: cell-based or functional assay.

The substance “lamprey GnRH-III (from UniProt P30948 1-10) (peptide)” registered a fold difference of EC50 against lamprey GnRH-I (IP and cAMP) (fold lower than lamprey GnRH-I) of 40 to 50.
